Experimental data published in US20230408517A1 (BIO TECHNE, published 2023).
Where two headings read alike, the source gives them in different places.

B1: 1035211 (antibody, V domains shown)
VH: QVQLQQSGAELARPGASVKMSCKASGYTFTNYTMHWVKQRPGQGLEWIGYINPSSGYTNYNQKFKDKATLTADKSSSTAYMQLSSLTSEDSAVYYCARRNPLYAMDYWGQGTSVTVSS
VL: DIKMTQSPSSMYASLGERVTITCKASQDINSYLNWFQQKPGKSPKTLIYRANRLVDGVPSRFSGSGSGQDYSLTISSLEFEDMGIYYCLQYDEFPYTFGGGTKLEIK
B2: 1035716 (antibody, V domains shown)
VH: EVLLQQSGPELVKPGASVKIPCKASGYTFTDYNMDWVKQSHGKSLEWIGDINPNNGGTIYNQKFKGKATLTVDKSSSTAYMELRSLTSEDTAVYYCAREGYGNYFDYWGQGTTLTVSS
VL: DILLTQSPAILSVSPGERVSFSCRASQSIGTSIHWYQQRTNGSPRLLIKYASESISGIPSRFSGSGSGTDYTLSINSVESEDIADYYCQQSYSWPTTFGAGTKLELK
B3: 1035414 (antibody, V domains shown)
VH: QVQLKQSGAELVRPGASVKLSCKTSGYIFTSYWIHWVKQRSGQGLEWIARIYPGTGNTYYNEKFKGKATLTADKSSTTAYMQLSSLKSEDSAVYFCARGEDNLYYYAMDYWGQGTSVTVSS
VL: NIVLTQSPASLAVSLGQRATISCRASESVDSYGTSFMHWYQQKPGQPPKLLIYLASNLESGVPASFSGSGSRTDFTLTIDPVEADDAATYYCQQNNEDPWTFGGGTKLEIK
B4: 1035423 (antibody, V domains shown)
VH: EVKLEESGGGLVQPGGSMKLSCTASGFTFSDAWMDWVRQSPEKGLEWVAEIRNKANNHATYYAESVKGRFTISRDDSKSSVYLQMNSLRAEDTGIYYCILFITYAMDYWGQGTSVTVSS
VL: DIVLTQSQKFMSTSVGDRVSITCKASQNVRTAVAWYQQKPGQSPKALIYLASNRHTGVPDRFTGSGSGTDFTLTISNVQSEDLADYFCLQHWNYPLTFGSGTKLELK
B5: 1035752 (antibody, V domains shown)
VH: QVQLQQPGAELVRPGASVKMSCKASGYTFTSHSIHWVKQTPGQGLEWIGAVYPGNGDTSYYQKFKGKATLTADKSSSTAYMHLSSLTSEDSAVYYCARDGYSDYYAMDCWGQGTSVTVSS
VL: DIVMTQSQKFMSTSVGDRVSVTCKASQNVGTNVAWYQQKPGQSPKALIYSASYRYSGVPDRFTGSGSGTDFTLTINNVQSEDLAEYFCQQYNRYPWTFGGGTKLEIK
B6: 1035755 (antibody, V domains shown)
VH: EVQLQQSGAELVRPGALVKLSCKASGFNIKDYYMHWVKQRPEQGLEWIGWIDPENGNSIYDPKFQGKASITADTSSNTAYLQLSSLTSEDTAVYYCATPSATSYFDYWGQGTTLTVSS
VL: QIVLTQSPAIMSASPGEKVTISCSASSSVSYMYWYQQKPGSSPKPWIYRTSNLASGVPARFSGSGSGTSYSLTISSMEAEDAATYYCQQYHSYPYMYTFGGGTKLEIK
B7: 1035433 (antibody, V domains shown)
VH: QVQLQQSGPQLVRPGASVKISCKASGYSFTIYWMHWVQQRPGQGLEWIGMIDPSDSETRLNQKFKDKATLTVDKSSSTAYMQLSSPTSEDSAVYYCARRGDYNFDYWGQGTTLTVSS
VL: DIVMTQAAPSVPATPGESVSISCRSSKSLLHSNGNTYLYWFLQRPGQSPQLLIFRMSNLASGVPDRFSGSGSGTAFTLRISRVEAEDVGVYYCMQHLEYPYTFGGGTKLEIK

Tests used:
Assay in all cases: flow cytometry, blocking of binding to hACE-2 cells
[1] = biological target: T1, recombinant SARS-CoV-2 spike S1 RBD (R319-F541), C-terminal 6-His (SARS-CoV-2, UniProt P0DTC2 319-541)
[2] = biological target: T1, recombinant SARS-CoV-2 spike S1 RBD …; remark: listed apart in the source
[3] = biological target: BR P.1 variant RBD (R319-F541 with K417T, E484K, N501Y), C-terminal 6-His (SARS-CoV-2, UniProt P0DTC2 319-541)
[4] = biological target: rSARS2-B.1.1.7 S aa16-1211 2x aa mut., C-His (SARS-CoV-2, UniProt P0DTC2 16-1211)
[5] = biological target: rSARS2 RBD aa319-541, N439K, C-His (SARS-CoV-2, UniProt P0DTC2 319-541)
[6] = biological target: IN v2 variant RBD (R319-F541 with L452R, T478K) (SARS-CoV-2, UniProt P0DTC2 319-541)
[7] = biological target: rSARS2-B.1.617.2 S aa16-1211 10+4x aa mut., C-His (SARS-CoV-2, UniProt P0DTC2 16-1211)
[8] = biological target: rSARS2-B.1.1.7 S aa16-1211 4x aa mut., C-His (SARS-CoV-2, UniProt P0DTC2 16-1211)

Row | Binder | percent blocking [1] [%] | percent blocking [2] [%] | percent blocking [3] [%] | percent blocking [4] [%] | percent blocking [5] [%] | percent blocking [6] [%] | percent blocking [7] [%] | percent blocking [8] [%]
1 | B1 | 98.7 | 98.7 | 0 | 76.3 | 18.1 | 1.7 | 0 | 72.4
2 | B2 | 94.6 | 94.6 | 95 | 94.4 | 96.2 | 96.5 | 89.3 | 81.5
3 | B3 | 85.2 | 85.2 | 0.4 | 17.8 | 43 | 37.4 | 73.5 | –
4 | B4 | 94.1 | 94.1 | 22 | 71.1 | 34.6 | 81.4 | 89.5 | 75.9
5 | B5 | 94.5 | 94.5 | 77.2 | 81.4 | 53 | 0.8 | 0 | 74.4
6 | B6 | 94.1 | 94.1 | 14.9 | 12 | 25.2 | 0.9 | 0 | 35.8
7 | B7 | 93.7 | 93.7 | 0 | 82 | 0.9 | 18.4 | 93.8 | 23.5
